From patent US20210395345A1

Experiments:
Test in all cases: cell-based or functional assay
[1] = biological target: SARS-CoV-2 spike protein with N439K (SARS-CoV-2) (UniProt P0DTC2)
[2] = biological target: SARS-CoV-2 spike protein with K444T (SARS-CoV-2) (UniProt P0DTC2)
[3] = biological target: SARS-CoV-2 spike protein with V445A (SARS-CoV-2) (UniProt P0DTC2)
[4] = biological target: SARS-CoV-2 spike protein with K444Q (SARS-CoV-2) (UniProt P0DTC2)
[5] = biological target: SARS-CoV-2 spike protein with K444N (SARS-CoV-2) (UniProt P0DTC2)

mAb10987 (antibody)
reduced susceptibility (fold; neutralization assays using pseudotyped VSV) [1]: 463 fold
reduced susceptibility (fold; neutralization) [2]: > 1030 fold
reduced susceptibility (fold; neutralization) [3]: 548 fold
reduced susceptibility (fold; neutralization) [4]: > 548 fold
reduced susceptibility (fold; neutralization) [5]: > 755 fold
